Measurements from the nanobody polyreactivity screen of Harvey et al. (2022).

Assay: yeast display, Sf9 membrane polyspecificity reagent, FACS + sequencing; frameworks hold sequencing errors
Summary of the method: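 A synthetic nanobody library was expressed on Saccharomyces cerevisiae BJ5465 by galactose induction for 36–48 hours. The library was stained for 1 hour at 4 °C with 10% biotinylated, detergent-solubilized Sf9 membrane reagent and enriched with streptavidin microbeads before FACS. Low and high (top ~1%) gates were set on anti-HA fluorescence for expression and streptavidin fluorescence for reagent binding, and each polyreactivity label reflects the gate of origin.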

| Sequence | polyreactivity (PSR sort gate) |
| --- | --- |
| QVQLVESGGRLVQAGGSRRLSCAASGFTFGIYAMGWYRQAPGKARELVAAITSGGITKYADSVKGRFTISRDNAKNTVYLQMKSLKPEDTAVYYCAATGFRQSYDSTWYRYDYWGQGTQVTVSS | low polyreactivity |
| QVQLVESGGRLVQAGGSRRLSCAASGSTFYTNDMGWYIQAPGKERELVAAISSGGDYADSVKGRFTISRDNAKNTVYLQMNSLKPEDTAVYYCAKADTKWGQGTQVTVSS | low polyreactivity |
| QVQLVESGGRLVQAGGTLRLSCADSGNTLHVYAMGWYRQAPGKERELVARITGGGRKYYADSVKGRFTISRDNAKNTVYLLMNSLNPEDTAVYYCATDYYGHKFLYDYWGQGTQVTVSS | low polyreactivity |
| QVQLVESGGRLVQAVGSLRLSCAASGRTFEYYNMGWYRQEPGKEREFVAANTWGGGSTSYADSVKGRFTISRDNAKNTVYLQMNSLKPEDTAVYYCAADDVYYDDDYWGQGTQVTVSS | high polyreactivity |
| QVQLVESGGRLVQGRGSLRLSCAASGRTFHIYDIGWYRQAPGKERELVAAIRGRSGSTYYADSVKGRFTISRDNAKNNDYLQMNSLTPEDNAVYYCAAENLGRFVASEYDYWGQGTQVTVSS | high polyreactivity |
| QVQLVESGGSIVQAGGSLRLSCAASGSTFDVYDMGWYRHAPGKERELVAAITTSGGGTYYADSVKGRFTISRDNAKNTGYLQMNSLKPEDTAVYYCAADTWRDGDDYWGQGTQVTVSS | low polyreactivity |
| QVQLVESGGSLVQAGGSLRLSCAASGFIFIRYAMGWYRQAPGKERELVAAITTSTGRTYYADSVKGRFTISRDNAKNTVYLQMNSLKPEDTAVYYCAAVPWKRYDYYTPFARGYWGQGTQVTVSS | low polyreactivity |
| QVQLVESGGVFVQAGGSLRLSCAASGSIFPYVNAMGWYRQAPGKEREFVASIPGGGGTKYADSVKGRFTISRDNAKNTVYLQMNSLKAEDTAVYYCNATSGNPASTAWMNYWGQGTQVSVSS | low polyreactivity |
| QVQLVESGGVIVQAGGSLRLSCAASGFTFQAYAKGWYRQAPGKETELVAAITRSGGRTYYADSVKGRFTISRDNAKNTVYFQMKRLKPEDTAVYYCAKLSDSITLYGYWGQGTQVTVSS | high polyreactivity |
| QVQLVESGGVLDQAGGSLRLSCAAAGITSPDNVMGWYRKAPGKEFDLVAANSGSGGSTYYADYVQGRFTISRDNAKNSVYLQINILKPEDTAVYYCAADVEYKVFPGDYWGQGTQVTVSS | low polyreactivity |
| QVQLVESGGVLFQAGGSLRLSCAASGRISYANAIGWYRQAPGKESEMVASITYSAGSTYADSVKGRFTISRDNAKNTVYLQMISLKPEDTAVYYCAKRPCQHYRSYLMDYWGQGTQVNVSS | low polyreactivity |
| QVQLVESGGVLLQGGGSLRLTWAASGGIFTDYTIRSYRQAPGKERELVADITWTGGSTYYPDSVKGRFTISRDNAKNTVYLQMNSLKPEDTAVYYCAADDYWVNLDYWGQGTQVTVSS | low polyreactivity |
| QVQLVESGGVLVQAGASLRLSCAASGLTFAVYTMGGYRQAPGKEMELVAAITWDGGITYYADSVKGRFTISRDNAKYTVYLQMNSLKPEDTAVYYCAADYALGEVYWYNYWGQGTQVTVSS | low polyreactivity |
| QVQLVESGGVLVQAGGSLRISSAASGRIFKVYAMGWYRQAPGKEREFVAVITGGGSTNYADSVKGRFTISRDNAKNTVYLQMNSLKPEDTGVYYCATEGYGHGGETDGGVYSDLGYWGQGTQVTVSS | low polyreactivity |
| QVQLVESGGVLVQAGGSLRLSCAASGFIFRSNGMGWYRQARGKERELVAVITSSTGSTSYADSVKGRFTISRDNAKNTVYLQMNSLKPEDTAVYSCAADYQFGRGAEPYVFFDPEMDYWGQGTQVTESS | low polyreactivity |
| QVQLVESGGVLVQAGGSLRLSCAASGFTFGPYAMGWYRPAPGKERELVATIRSGDSTNYADSVKGRFTISRDNAKNTVYLQMNSLKPEDTAVYYCARDARASARRKRYDYGGQGTQVTVSS | low polyreactivity |

| Sequence | polyreactivity (PSR sort gate) |
| --- | --- |
| QVQLVESGGVLVQAGGSLRLSCAASGFTFLAYAMGWYRQAPGKERELVAAINSSDGTTHYADSVKGRFTISRDNAKITVYLQMNSLKPEDTAVYYCAVSQVRTGEGYHYWGQGTQVTVSS | low polyreactivity |
| QVQLVESGGVLVQAGGSLRLSCAASGIIFGRDTMGWYRQAPGKERELVAAITSSGITYYADSVKGRFTFSRDNAKNCVYLQMNSLKPEDTAVYYCIADYSIPGYYWPYDYWGQCTQVTVSS | low polyreactivity |
| QVQLVESGGVLVQAGGSLRLSCAASGIIFVYNPMGWYRPAPGKERELVAGISWNGVSTYYADSVKWRFTISRDYAKYTVYLQMNSLKPEDTAVYYCAASLWVYVGQARYLWYDYWGQGTQVTVSS | low polyreactivity |
| QVQLVESGGVLVQAGGSLRLSCAASGITFGDNAMGWYRQAPGKERELVAAITTSVDSTYYADSVKGRFTISRDNAKNTVYLQMNSLKPEDTAVYYCAVAFVQFTQYDYWGQGTQVTVSS | low polyreactivity |
| QVQLVESGGVLVQAGGSLRLSCAASGITFIGYAMGWYRQAPGKERELVASITSGANTNYADSVKGRFTISRDNAKNTVYLQMNSVKAEDTAVYYCAAPEHGTYANILGEPLDYWGQGTQVTVSS | low polyreactivity |
| QVQLVESGGVLVQAGGSLRLSCAASGITFPGYAMGWYRKAPGKERELVAAISAIGGRTYYADSVKGRFTISRYNAKNTVYLQMNSLKPEDTAVYYCNVLPYGGKKPTLFDYWGQGTQVTVSS | high polyreactivity |
| QVQLVESGGVLVQAGGSLRLSCAASGNIFVPYAMGWYRQAPGKERDLVAAISSRGGRTYYADSVKGRFTISRDNAKNTVYLQMNSLKPEDTAVFYCNKVAKSSVLTLDYWGQGTQVTVSS | high polyreactivity |
| QVQLVESGGVLVQAGGSLRLSCAASGRIFDDYAMGWYRQAPGKERELVAAIRSGGNSNYADSVKGRFTISRDNAKNTVYLQMNSLTPEETAVYYCAADEVRSAWRCSSPPDYDHWGQGTHVTVSS | low polyreactivity |
| QVQLVESGGVLVQAGGSLRLSCAASGRIFHYYAMGWYRQAPGKETELVAANSSRRGSTYYADSVKGRFTISRDNAKNNFYLQMNILKAYDTAVYYCNARGWGYWVRFDYWGQGTQVTVSS | high polyreactivity |
| QVQLVESGGVLVQAGGSLRLSCAASGRIFRNYVMGWYRQAPGKEREMVAAISRSGGSTYYADSVKGRFTISRDNAKNTVYLQMNSLKPEDTAVYYCNAEYASRRVSERDYWGQGTQVTVSS | high polyreactivity |
| QVQLVESGGVLVQAGGSLRLSCAASGRILFSYGMGWYRQATGKERELVARISWSGGNTHYADSVKGRFTISRDNAKNTVYLQMNSLKPEDTAVYYCNAYYTYWYPRYDYWGQGTQVTVSS | low polyreactivity |
| QVQLVESGGVLVQAGGSLRLSCAASGRTFLNYTMGWYRQAPRKDIELVAAISTSGGSTNYADSVKGRFTISRDNAKNTVYLQMTSLKPEDTAVYYCAAETSTKPEAYEYWGQGTQVTVSS | low polyreactivity |
| QVQLVESGGVLVQAGGSLRLSCAASGRTFYGYAMGWNRQAPGKERYLVAAIDIDVGNTYYADSVKGRFTISRDNAKNTVYLQMNSLKPEDTAVYYCAAEIPSWWLPALFRYDYWGQGTQVTVSS | low polyreactivity |
| QVQLVESGGVLVQAGGSLRLSCAASGRTFYLYAMGWSRQAPGKERELVAAISRSGGITYYADSVKGRFTISRDNAKNTVYLQMNSLKPEDTAVYYCAASRAGGYYGKGYSWGQGTQVTVSS | high polyreactivity |
| QVQLVESGGVLVQAGGSLRLSCAASGRTFYSYAMGWYRQAPGNERELVAAITSSGGSTYYADSVKGRFTISRDNAKNTVYLQMNRLKPEDTAVYYCAAPRGRHFDYWGQGTQVTVSS | high polyreactivity |
